Experimental data taken from PMC3825537.

Biological target: monomeric photosystem II complex (His-tagged PsbE) (Nicotiana tabacum | Nicotiana tabacum (endogenous in leaves)) (UniProt P69384)
Assay: native gel or EMSA; BN-PAGE (3-12 % gradient, 205 V, 5 h, 4 °C) of PSII purified by protocol A

- stoichiometry N: 2
Substance: monomeric photosystem II complex (His-tagged PsbE) (from UniProt P69384 1-83; P69556 1-344)
